Results published in publication PMC5639936 (Nature plants, 2017).
Values belong to the binder of their own block, whether it stands above or below them.

Experiments:
AUC = target: the molecule itself; test: AUC
[1] = target: T1, SHR-SCR complex (SHR 59-531 with SCR 275-653) (Arabidopsis thaliana, UniProt Q9SZF7 59-531; Q9M384 275-653); test: ITC
T1 sequence (looked up) 1: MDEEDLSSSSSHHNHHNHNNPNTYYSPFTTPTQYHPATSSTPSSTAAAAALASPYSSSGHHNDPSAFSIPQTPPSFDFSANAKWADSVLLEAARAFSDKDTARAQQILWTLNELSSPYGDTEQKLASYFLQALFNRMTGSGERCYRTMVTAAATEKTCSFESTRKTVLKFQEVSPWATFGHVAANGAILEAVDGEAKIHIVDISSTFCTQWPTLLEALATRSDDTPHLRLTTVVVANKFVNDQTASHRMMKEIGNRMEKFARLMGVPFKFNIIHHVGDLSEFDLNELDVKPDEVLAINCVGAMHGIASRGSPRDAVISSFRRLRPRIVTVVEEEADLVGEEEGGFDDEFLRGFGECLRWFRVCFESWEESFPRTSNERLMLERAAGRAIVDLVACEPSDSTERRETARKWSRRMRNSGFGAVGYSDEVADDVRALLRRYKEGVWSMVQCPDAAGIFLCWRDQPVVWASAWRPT
T1 sequence (looked up) 2: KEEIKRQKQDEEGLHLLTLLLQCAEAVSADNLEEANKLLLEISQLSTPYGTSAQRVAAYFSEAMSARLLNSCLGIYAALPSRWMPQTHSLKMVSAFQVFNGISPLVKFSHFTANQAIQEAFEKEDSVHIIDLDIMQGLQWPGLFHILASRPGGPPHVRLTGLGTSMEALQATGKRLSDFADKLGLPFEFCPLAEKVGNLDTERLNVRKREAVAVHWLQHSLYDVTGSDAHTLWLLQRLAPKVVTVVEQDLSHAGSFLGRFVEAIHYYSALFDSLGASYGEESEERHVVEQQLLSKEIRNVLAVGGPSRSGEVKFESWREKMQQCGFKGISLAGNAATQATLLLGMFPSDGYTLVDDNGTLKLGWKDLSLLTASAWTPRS

B1: AtSCL3 (natural protein, Arabidopsis, UniProt Q9LPR8 1-482, looked up)
chain: MVAMFQEDNGTSSVASSPLQVFSTMSLNRPTLLASSSPFHCLKDLKPEERGLYLIHLLLTCANHVASGSLQNANAALEQLSHLASPDGDTMQRIAAYFTEALANRILKSWPGLYKALNATQTRTNNVSEEIHVRRLFFEMFPILKVSYLLTNRAILEAMEGEKMVHVIDLDASEPAQWLALLQAFNSRPEGPPHLRITGVHHQKEVLEQMAHRLIEEAEKLDIPFQFNPVVSRLDCLNVEQLRVKTGEALAVSSVLQLHTFLASDDDLMRKNCALRFQNNPSGVDLQRVLMMSHGSAAEARENDMSNNNGYSPSGDSASSLPLPSSGRTDSFLNAIWGLSPKVMVVTEQDSDHNGSTLMERLLESLYTYAALFDCLETKVPRTSQDRIKVEKMLFGEEIKNIISCEGFERRERHEKLEKWSQRIDLAGFGNVPLSYYAMLQARRLLQGCGFDGYRIKEESGCAVICWQDRPLYSVSAWRCRK
stoichiometry N (AUC): 2

Kd [1]: 124 ± 81.7 nM
dH [1]: -1.29 ± 0.03 kcal/mol
stoichiometry N [1]: 0.6 ± 0.01
B2: JKD/IDD10 ZF3-ZF4 (residues 155-224) (domain or fragment, Arabidopsis thaliana, UniProt Q700D2 155-224, looked up)
chain: GEKKWKCEKCSKKYAVQSDWKAHAKTCGTREYKCDCGTLFSRKDSFITHRAFCDALTEEGARMSSLSNNN

Kd [1]: 35.5 ± 11.2 nM
dH [1]: 2.59 ± 0.02 kcal/mol
stoichiometry N [1]: 0.81 ± 0.003
B3: MGP/IDD3 ZF3-ZF4 (residues 143-221) (domain or fragment, Arabidopsis thaliana, UniProt Q9ZWA6 143-221, looked up)
chain: EKKWKCEKCAKRYAVQSDWKAHSKTCGTREYRCDCGTIFSRRDSFITHRAFCDALAEETARLNAASHLKSFAATAGSNL
